Data as given in patent US11434267B2, “Peptides having reduced toxicity that stimulate cholesterol efflux” (The Regents of the University of California, priority 2013, dated 2022).
“Also recorded” adds a separate entry of the source.

Legend:
human plasma = assay: Cholesterol efflux activity of human plasma treated with lipid-free peptide (J774 cells); format: cell-based; conditions: plasma + 300 μg/ml peptide 5 min 4° C., diluted to 1%, cAMP treated J774
Procedure: (FIG. 33). To test whether CS6253 exerts anti-atherogenic effects in a biological milieu, human plasma was exposed (5 min) to lipid-free peptide. Interactions of CS6253 with HDL in plasma and activity of plasma to stimulate cholesterol efflux was assessed; the latter using J774 macrophages labeled with [3H]cholesterol. Panel A—Cholesterol efflux activity of plasma treated with lipid-free peptides. Human plasma was incubated with 300 μg/ml peptides for 5 minutes (4° C.), diluted to 1% in serum-free RPMI-1640 culture medium and immediately added to [3H]cholesterol-labeled J774 cells. […] Panel B—Induction of preβ HDL upon treatment of human plasma with CS6253. Plasma was exposed to a small amount of peptide relative to endogenous apoA-I (1:10 mole ratio, respectively) and formation of preβ HDL assessed by 2D non-denaturing gradient gel electrophoresis (NDGGE) and western blot analysis. […] The results are consistent with the production of authentic preβ HDL particles composed entirely of endogenous apoA-I.
To test whether T6991-2 exerts anti-atherogenic effects in a biological milieu, human plasma was exposed (5 min) to lipid-free peptide. Interactions of T6991-2 with HDL in plasma and activity of plasma to stimulate cholesterol efflux was assessed using J774 macrophages labeled with [3H]cholesterol. Panel A—Cholesterol efflux activity of plasma treated with lipid-free peptides. […]

ABCA1 [1] = target: T1, ABCA1 (Mus musculus, UniProt P41233); assay: ABCA1-dependent cholesterol efflux from [3H]cholesterol-labeled J774 macrophages with and without cAMP; format: cell-based; conditions: cAMP treated J774, dose response, 4 h
T1 construct: treated (18 h) with a cAMP analog to induce ABCA1 protein expression; endogenous in cells; host or cells: J774 macrophages
Source text: Suitable cholesterol efflux assays are described in, e.g., Bielicki, J. K and Oda, M. N., Biochemistry, 41:2089-2096 (2002); Jia et al., Biochem. Biophys. Res. Common., 297:206-213 (2002). In some embodiments, a polypeptide known to mediate cholesterol efflux (e.g., helix 9/10 of Apo A-I) is used to screen for additional mediators of cholesterol efflux in a cell based assay. For example, cell lines in which cholesterol efflux can be enhanced using a cAMP analog that up-regulates ABCA1 protein expression (e.g., J774 macrophages) can conveniently be used to assess the ability of a polypeptide of the present invention to mediate cholesterol efflux. The cells are incubated with labeled cholesterol (e.g., [^3H]cholesterol) under conditions appropriate for cholesterol uptake by the cells. Thus, cAMP or cAMP analogs (e.g., CPT-cAMP) are incubated with the cells for a suitable time before the initiation of cellular cholesterol efflux, i.e., prior to contacting the cells with a test polypeptide. Measurement of labeled cholesterol appearing in the medium is used to determine the cholesterol efflux mediating activity of the test polypeptide.
Aliphatic analogs of ATI-5261 lacking phenylalanine residues retained potent ABCA1 selective cholesterol efflux activity (FIG. 7). J774 macrophages were labeled (48 h) with [^3H]cholesterol and treated (18 h) with a cAMP analog to induce ABCA1 protein expression; cells incubated in the absence of cAMP (left bars) served as controls. […] Peptides were used at a concentration of 30 μg/ml, which was maximal for promoting cholesterol efflux activity. Panel B—Dependence of cholesterol efflux on the concentration of peptides. […] Results are expressed as the difference in cholesterol efflux (%/4 h) observed using cAMP treated vs. non-treated J774 cells. Values are means±SD, n=3.

cynomolgus monkeys = assay: IV infusion toxicity of ATI-5261 in monkeys; format: in vivo, cynomolgus monkey
Procedure: Male (upper panel) and female (lower panel) cynomolgus monkeys were administered ATI-5261 at a fixed dose of 100 mg/kg by IV infusion (60 min) every 96 hours for a total of 4 injections. Blood was collected 24 h post infusion and levels of plasma ALT, AST, creatine kinase (CPK), and total and indirect bilirubin determined. Values are expressed as a fold-increase vs. pre-dose levels.

ABCA1 [2] = target: T1, ABCA1; assay: ABCA1-dependent cholesterol efflux from [3H]cholesterol-labeled J774 macrophages with and without cAMP; format: cell-based; conditions: J774, cAMP vs no cAMP; 10 μg/ml lipid-free

T1 sequence (P41233 whole entry): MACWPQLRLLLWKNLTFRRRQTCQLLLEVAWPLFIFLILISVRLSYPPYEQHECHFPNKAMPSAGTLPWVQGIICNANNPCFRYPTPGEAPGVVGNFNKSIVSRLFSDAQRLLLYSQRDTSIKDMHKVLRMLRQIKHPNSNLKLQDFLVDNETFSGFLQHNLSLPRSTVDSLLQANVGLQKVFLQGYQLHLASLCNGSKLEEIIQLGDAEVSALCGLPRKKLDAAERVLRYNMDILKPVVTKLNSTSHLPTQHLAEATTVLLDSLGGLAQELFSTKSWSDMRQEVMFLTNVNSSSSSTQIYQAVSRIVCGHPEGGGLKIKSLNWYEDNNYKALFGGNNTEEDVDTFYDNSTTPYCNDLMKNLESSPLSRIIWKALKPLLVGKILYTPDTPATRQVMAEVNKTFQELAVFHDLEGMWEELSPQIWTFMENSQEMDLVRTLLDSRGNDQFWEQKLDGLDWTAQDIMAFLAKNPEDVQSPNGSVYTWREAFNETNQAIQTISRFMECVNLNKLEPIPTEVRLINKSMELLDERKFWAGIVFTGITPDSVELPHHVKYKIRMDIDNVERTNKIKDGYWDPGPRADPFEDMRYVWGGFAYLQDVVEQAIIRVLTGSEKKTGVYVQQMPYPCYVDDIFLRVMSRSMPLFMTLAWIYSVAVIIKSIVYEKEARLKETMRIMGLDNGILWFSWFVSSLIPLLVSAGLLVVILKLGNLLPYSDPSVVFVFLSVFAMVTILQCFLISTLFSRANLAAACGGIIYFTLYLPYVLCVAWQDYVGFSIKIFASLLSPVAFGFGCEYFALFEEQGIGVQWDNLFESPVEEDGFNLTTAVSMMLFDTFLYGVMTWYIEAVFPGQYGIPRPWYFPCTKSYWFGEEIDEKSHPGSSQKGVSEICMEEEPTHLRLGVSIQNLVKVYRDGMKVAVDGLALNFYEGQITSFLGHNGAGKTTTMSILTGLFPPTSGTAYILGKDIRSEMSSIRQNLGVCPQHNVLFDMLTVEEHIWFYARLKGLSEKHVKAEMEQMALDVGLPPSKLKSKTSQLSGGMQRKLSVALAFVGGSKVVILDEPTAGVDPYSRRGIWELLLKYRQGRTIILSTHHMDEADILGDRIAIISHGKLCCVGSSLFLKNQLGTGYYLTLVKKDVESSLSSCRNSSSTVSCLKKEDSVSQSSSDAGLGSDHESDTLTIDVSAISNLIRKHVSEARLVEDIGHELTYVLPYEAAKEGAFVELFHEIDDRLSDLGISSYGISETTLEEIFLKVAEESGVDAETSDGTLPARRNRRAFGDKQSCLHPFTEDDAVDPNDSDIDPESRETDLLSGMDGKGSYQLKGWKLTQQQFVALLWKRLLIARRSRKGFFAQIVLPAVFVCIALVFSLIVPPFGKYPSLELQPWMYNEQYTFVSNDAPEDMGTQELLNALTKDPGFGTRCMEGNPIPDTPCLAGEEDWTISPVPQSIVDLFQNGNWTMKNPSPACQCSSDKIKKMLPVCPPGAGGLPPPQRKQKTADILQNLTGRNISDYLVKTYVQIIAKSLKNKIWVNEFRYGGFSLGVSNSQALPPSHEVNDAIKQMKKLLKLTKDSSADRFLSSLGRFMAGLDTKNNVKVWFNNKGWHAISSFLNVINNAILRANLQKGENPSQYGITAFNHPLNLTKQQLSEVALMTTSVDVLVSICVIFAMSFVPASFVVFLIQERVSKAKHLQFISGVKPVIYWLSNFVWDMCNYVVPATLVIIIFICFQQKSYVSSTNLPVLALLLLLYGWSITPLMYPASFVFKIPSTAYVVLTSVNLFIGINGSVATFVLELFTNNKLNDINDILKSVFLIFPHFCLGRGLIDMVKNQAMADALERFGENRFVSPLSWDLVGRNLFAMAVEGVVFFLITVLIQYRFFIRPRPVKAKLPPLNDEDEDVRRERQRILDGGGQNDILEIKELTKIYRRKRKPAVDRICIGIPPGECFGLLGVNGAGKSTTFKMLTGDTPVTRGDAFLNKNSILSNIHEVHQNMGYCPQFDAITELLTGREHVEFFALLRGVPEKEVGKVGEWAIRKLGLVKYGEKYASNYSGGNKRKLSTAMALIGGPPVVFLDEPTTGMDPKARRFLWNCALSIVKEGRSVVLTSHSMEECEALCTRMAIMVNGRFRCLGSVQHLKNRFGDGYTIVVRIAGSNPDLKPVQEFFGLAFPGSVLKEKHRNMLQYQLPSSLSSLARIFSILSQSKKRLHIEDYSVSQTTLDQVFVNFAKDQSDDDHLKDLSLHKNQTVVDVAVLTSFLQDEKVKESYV

Substance: ATI-5261: HDL mimetic peptide, parent peptide with phenylalanine and arginine residues; toxic at high doses; used as positive control (EVRSKLEEWFAAFREFAEEFLARLKS)
- capacity of treated plasma to stimulate cholesterol efflux via ABCA1 (human plasma): possessed greater capacity to stimulate cholesterol efflux
- peptide concentration at saturation of cholesterol efflux (ABCA1 [1]): roughly 3 μg/ml
- cytotoxic response (ALT, AST, CPK, bilirubin) (cynomolgus monkeys; 100 mg/kg IV infusion (60 min) every 96 hours, 4 injections, 24 h post infusion): induced a cytotoxic response
- plasma creatine kinase, fold-increase vs. pre-dose (cynomolgus monkeys; 100 mg/kg IV infusion, after the first infusion, male and female): marked increase
- ABCA1-dependent cholesterol efflux activity (ABCA1 [2]): stimulated an overall greater efflux response; also recorded: stimulated a greater efflux response
